B1: B-Box: HMGB1 domain B Box (90-176), listed beside B-linker Box in Experiment No. 1 (protein, UniProt P09429 90-176, looked up, fragment)
chain: KDPNAPKRPPSAFFLFCSEYRPKIKGEHPGLSIGDVAKKLGEMWNNTAADDKQPYEKKAAKLKEKYEKDIAAYRAKGKPDAAKKGVV
B2: AB Boxes: HMGB1 A and B domains (1-176), lacks the C tail (protein, UniProt P09429 1-176, looked up, fragment)
chain: MGKGDPKKPRGKMSSYAFFVQTCREEHKKKHPDASVNFSEFSKKCSERWKTMSAKEKGKFEDMAKADKARYEREMKTYIPPKGETKKKFKDPNAPKRPPSAFFLFCSEYRPKIKGEHPGLSIGDVAKKLGEMWNNTAADDKQPYEKKAAKLKEKYEKDIAAYRAKGKPDAAKKGVV
B3: nHMGB1: native HMGB1 purified from calf thymus (Chondrex, Inc), commercially available, used as a control (protein, UniProt P10103 2-215, looked up)
High mobility group protein B1: GKGDPKKPRGKMSSYAFFVQTCREEHKKKHPDASVNFSEFSKKCSERWKTMSAKEKGKFEDMAKADKARYEREMKTYIPPKGETKKKFKDPNAPKRPPSAFFLFCSEYRPKIKGEHPGLSIGDVAKKLGEMWNNTAADDKQPYEKKAAKLKEKYEKDIAAYRAKGKPDAAKKGVVKAEKSKKKKEEEEDEEDEEDEEEEEDEEDEEEEEDDDDE
B4: A Box: HMGB1 domain A Box (1-89) with C-terminal linker, lacks B box and C tail (protein, UniProt P09429 1-89, looked up, fragment)
chain: MGKGDPKKPRGKMSSYAFFVQTCREEHKKKHPDASVNFSEFSKKCSERWKTMSAKEKGKFEDMAKADKARYEREMKTYIPPKGETKKKF
modifications: C-terminal linker
notes: HMGB1 domain A Box (1-89) with C-terminal linker, lacks B box and C tail

Legend:
[1] = test system: Klebsiella pneumoniae biofilms; assay: in vitro disruption of pre-formed biofilms, LIVE/DEAD, CLSM and COMSTAT; format: cell-based; details: for % reduction in average thickness (AT), mean±SE / % reduction in biomass (BM), mean±SE: 200 nM added to pre-formed biofilms at 24 h, read at 40 h, vs untreated KP biofilms; for disruption of established K. pneumoniae biofilms (average thickness, biomass): 200 nM added at 24 h, 16 h incubation
Procedure: (§1) FIGS. 5A-5E: Anti-biofilm effect of HMGB1 variants on high priority bacterial pathogens. Indicated HMGB1 variants or antibodies against DNABII proteins (α-1HFEc 1gG, 1 μM) were added at 24 h to the respective preformed bacterial biofilms, in vitro. After 16 h of Incubation, biofilms were stained with LIVE/DEAD®, then visualized via confocal laser scanning microscopy. Images were analyzed by COMSTAT to calculate average thickness and comparison to control was plotted. (FIG. 5A) Full-length HMGB1 isoforms (200 nM unless otherwise indicated) added to UPEC, B. cenocepacia, NTHI, or ESKAPE pathogens. 800 nM rHMGB1 and 200 nM mHMGB1 were added for S. aureus (ESKAPE). 800 nM rHMGB1, 800 nM mHMGB1, or 3.3 μM of α-1HFEc 1gG were added for E. faecium (ESKAPE) and were incubated for 1 h as opposed to 16 h to avoid potential degradation by E. faecium proteases. (FIG. 5B) Representative images of UPEC biofilms incubated with increasing concentrations of rHMGB1. (FIG. 5C) Individual domains of HMGB1 (200 nM) were tested for anti-biofilm activity as above (dotted line indicates control values). Bars represent the SEM. Statistical significance compared to control was assessed with unpaired t-tests, *P<0.05. […] (FIGS. 5D-5E) HMGB1 and variants disrupt preformed Klebsiella pneumoniae biofilms. rHMGB1, HMGB1 C45S (mHMGB1), bovine HMGB1 (bHMGB1), B box, B Box C106S (mB Box), A Box, and A+B Box were added (200 nM) at 24 h to preformed K. pneumoniae biofilms. After 16 h of incubation, biofilms were stained with LIVE/DEAD®, then visualized via confocal laser scanning microscopy. Images were analyzed by COMSTAT to calculate average thickness and total biomass. Error bars represent the SEM. ***P<0.0001; ns=not significant.
An in vitro biofilm assay was used to test the effect of HMGB1 and its variants on established bacterial biofilms. Applicant expressed, (in E. coli) and purified >95% human recombinant full length HMGB1 (rHMGB1; 1-215), a C45S mutated variant (mHMGB1) and the HMGB1 domains A Box (1-89), A+B Boxes (1-176), B Box (80-179), and B Box C106S (mB Box) (FIG. 3). […] To evaluate the effect of HMGB1 and its variants as well as a commercially available native bovine HMGB1 (used as a control) on established bacterial biofilms, each protein was added (at 200 nM), to pre-formed Klebsiella pneumoniae biofilms after 24 h of growth. After a 16 h incubation (40 h total biofilm growth), the biofilms were stained with LIVE/DEAD® and analyzed using confocal laser scanning microscopy (CLSM) and COMSTAT analysis to calculate the average thickness and total biomass of the biofilms. […] The results of this study lead to a noteworthy observation that a single dose of these non-antimicrobial compounds was able to disrupt recalcitrant biofilms. In addition, the HMGB1 variants have disrupted every bacterial species tested to date, which includes Uropathogenic E. coli, Burkholderia cenocepacia, Nontypeable Haemophilus influenzae (FIG. 6). A single dose at this concentration released of bacteria from their protective shield makes them vulnerable to clearance by antibiotics and the immune system.
Klebsiella pneumoniae (KP), a common cause of nosocomial infections was used for all BBs disruption assays. Human recombinant full length HMGB1 (rHMGB1; 1-215), a C45S mutation variant (mHMGB1) and the HMGB1 domains A Box (1-89), B Box (90-176), AB Boxes (1-176), B-linker Box (80-179), and B-linker Box C106S were expressed (in E. coli) and purified to >95%. To evaluate the effect of rHMGB1 and the various domains on established BBs, each protein species (200 nM) was added to pre-formed BBs at 24 h. At 40 h the BBs were washed, stained with LIVE/DEAD®, visualized via confocal laser scanning microscopy and images were analyzed by COMSTAT to calculate average thickness and biomass.

[2] = test system: UPEC biofilm; assay: in vitro disruption of established biofilms, CLSM and COMSTAT; format: cell-based, Uropathogenic E. coli; details: added at 24 h, 16 h exposure; 200 nM unless stated
Procedure: as §1
(§2) HMGB1 disrupts pathogenic biofilms: To test the effect of HMGB1 on bacterial biofilms (FIG. 5), Applicant cloned (IMPACT®, NEB Ipswich, MA), expressed (in E. coli), and purified (heparin sepharose chromatography to >95% purity) tagless human recombinant HMGB1 (rHMGB1) and an engineered C45 S variant (mHMGB1) that mimics the reduced form of HMGB1. rHMGB1 readily forms an intramolecular disulfide bond between C23 and C45 that contributes to pro-inflammatory activity whereas mHMGB1 cannot. These HMGB1 isoforms were evaluated for ability to disrupt established biofilms (formed for 24 h prior to addition). After a 16 h exposure to a single dose of rHMGB1 (200 nM; ˜25-fold greater than typical sepsis serum concentration, but not able to directly induce sepsis), biofilms formed by a wide variety of high priority species were stained with LIVE/DEAD®, analyzed using confocal laser scanning microscopy (CLSM) and COMSTAT analysis and compared to control biofilms. […] Preliminary analysis of PTMs by LC-MS/MS analysis (MS Bioworks, LLC Ann Arbor, MI) indicated minimal modification of both rHMGB1 and nHMGB1 (<20% of the observed peptides had any given PTM, FIG. 1C). […] Thus, while there are intrinsic differences in sensitivity among pathogens, the biofilms formed by all of the tested high priority pathogens were susceptible to a single dose of these non-antimicrobial compounds.
HMGB1 domain structure and anti-biofilm activity: Applicant then produced recombinant HMGB1 truncation variants, of 1) the A Box, a self-contained DNA-binding domain (residues 1-89); 2) an A-B Boxes construct (lacks the C tail; residues 1-185); and 3) the B Box (residues 80 to 176, FIGS. 1A and 1C). […] Since only the B Box can modulate DNA bending, without being bound by theory, it was hypothesized that HMGB1 disrupts biofilms at least in part via DNA-binding/bending. As the B Box is reported to contain pro-inflammatory activity, mediated primarily through interactions with TLR4-MD2 that are dependent on residue C106, Applicant created a modified B Box variant (mB Box) with a C106S mutation (FIGS. 1A and 1C).

[3] = test system: B. cenocepacia biofilm; format: cell-based, Burkholderia cenocepacia; details: 200 nM added at 24 h, 16 h exposure
Procedure: Indicated HMGB1 variants or antibodies against DNABII proteins (α-1HFEc 1gG, 1 μM) were added at 24 h to the respective preformed bacterial biofilms, in vitro. After 16 h of Incubation, biofilms were stained with LIVE/DEAD®, then visualized via confocal laser scanning microscopy. Images were analyzed by COMSTAT to calculate average thickness and comparison to control was plotted. (FIG. 5A) Full-length HMGB1 isoforms (200 nM unless otherwise indicated) added to UPEC, B. cenocepacia, NTHI, or ESKAPE pathogens. 800 nM rHMGB1 and 200 nM mHMGB1 were added for S. aureus (ESKAPE). 800 nM rHMGB1, 800 nM mHMGB1, or 3.3 μM of α-1HFEc 1gG were added for E. faecium (ESKAPE) and were incubated for 1 h as opposed to 16 h to avoid potential degradation by E. faecium proteases. […] (FIG. 5C) Individual domains of HMGB1 (200 nM) were tested for anti-biofilm activity as above (dotted line indicates control values). Bars represent the SEM. Statistical significance compared to control was assessed with unpaired t-tests, *P<0.05. […] After 16 h of incubation, biofilms were stained with LIVE/DEAD®, then visualized via confocal laser scanning microscopy. Images were analyzed by COMSTAT to calculate average thickness and total biomass. Error bars represent the SEM. ***P<0.0001; ns=not significant.

[4] = test system: NTHI biofilm; assay: in vitro disruption of established biofilms, CLSM and COMSTAT; format: cell-based, Nontypeable Haemophilus influenzae; details: 200 nM added at 24 h, 16 h exposure
Procedure: as §1, §2
HMGB1 domain structure and anti-biofilm activity: Applicant then produced recombinant HMGB1 truncation variants, of 1) the A Box, a self-contained DNA-binding domain (residues 1-89); 2) an A-B Boxes construct (lacks the C tail; residues 1-185); and 3) the B Box (residues 80 to 176, FIGS. 1A and 1C). […]

Row | Molecule | % reduction in average thickness (AT), mean±SE [1] | % reduction in biomass (BM), mean±SE [1] | disruption of established K. pneumoniae biofilms (average thickness, biomass) [1] | disruption of established UPEC biofilms [2] | disruption of established Bc biofilms [3] | disruption of established NTHI biofilms [4]
1 | B1 | 63%±0.1 | 68%±0.02 |  |  |  | 
2 | B2 | 64%±0.08 | 73%±0.02 | retained full anti-biofilm activity | retained full anti-biofilm activity | retained full anti-biofilm activity | retained full anti-biofilm activity
3 | B3 |  |  | equivalently disrupted | equivalently disrupted | equivalently disrupted | equivalently disrupted
4 | B4 |  |  | no significant effect | no significant effect | no significant effect | no significant effect
